The text below walks through data of US20180237511A1 (Sanofi, published 2018).

The target in assay [1] is T1, human beta-dystroglycan extracellular domain (soluble) (human, UniProt Q14118 654-749).
T1 construct: extracellular domain; The expression construct of soluble human beta-DG is not described (only the mouse one); also called hBeta-DG; hbeta-DG
T1 sequence (looked up): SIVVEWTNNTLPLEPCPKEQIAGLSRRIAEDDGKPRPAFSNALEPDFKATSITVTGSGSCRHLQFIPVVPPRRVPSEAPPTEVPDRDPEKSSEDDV
As to the kind of experiment: dual binding sandwich ELISA on coated human beta-DG, read out through LG4/5-mFc (5 ug/mL). Here is the method:
A dual binding sandwich ELISA was performed by coating Thermo Nunc Immobilized SA 96 well plates with either 2 ug/mL of biotinylated N′Avi-HPC4-human LG4/5 or biotinylated human-beta DG-HPC4-Avi-C′. After overnight incubation at 4° C., the plates were blocked with PBS+1% BSA+0.1% Tween for 1 hour at room temperature. After washing (BioTek ELx405 Select CW) with PBS, the trivalent or parental antibodies were added to the plate started at 8 ug/mL and a 2-fold dilution was performed across the plate, antibody was incubated for 1 hour at room temperature. After washing, the second antigen of beta-DG-mFc (FIG. 1A) or LG4/5-mFc was added at 5 ug/mL. Following the second antigen, a secondary antibody of donkey anti-mouse (Jackson ImmunoResearch) at a 1:2,000 dilution was added for 30 minutes. ABTS was resuspended in ABTS buffer (Roche) and added to the wells for detection. Resulting signal was read with the Perkin Elmer EnVision Multimode Plate Reader at 405 nm.
To show binding of the triAbs to both antigens, a dual binding sandwich ELISA was performed as described above using 2 ug/mL of biotinylated N′Avi-HPC4-human LG4/5 (FIG. 14A) or biotinylated human-beta DG-HPC4-Avi-C′ (FIG. 14B).

For assay [2], the target named is T1, human beta-dystroglycan extracellular …. The assay is described as follows: SPR, antibody on Protein G chip, beta-DG in flow, 1:1 model (table title says laminin-2; paragraph 445 says human beta-DG). The protocol: Data was evaluated with a 1:1 binding model using the BIAevaluation software.
SPR was used as described above to analyze the kinetics of triAb binding to laminin-2 (Table N) or beta-DG (Table O).
For orientation: In SPR one partner is held on a chip, and binding of the other changes the refractive index at the surface.

Assay [3] shares this target. As to the kind of experiment: SPR (Biacore) kinetics; mAb immobilized, hBeta-DG in flow.
Assay [4] addresses T2, Fabrazyme (agalsidase beta, Genzyme) (UniProt P06280 32-429).
T2 construct: Negative control protein on the dot blots
T2 sequence (looked up): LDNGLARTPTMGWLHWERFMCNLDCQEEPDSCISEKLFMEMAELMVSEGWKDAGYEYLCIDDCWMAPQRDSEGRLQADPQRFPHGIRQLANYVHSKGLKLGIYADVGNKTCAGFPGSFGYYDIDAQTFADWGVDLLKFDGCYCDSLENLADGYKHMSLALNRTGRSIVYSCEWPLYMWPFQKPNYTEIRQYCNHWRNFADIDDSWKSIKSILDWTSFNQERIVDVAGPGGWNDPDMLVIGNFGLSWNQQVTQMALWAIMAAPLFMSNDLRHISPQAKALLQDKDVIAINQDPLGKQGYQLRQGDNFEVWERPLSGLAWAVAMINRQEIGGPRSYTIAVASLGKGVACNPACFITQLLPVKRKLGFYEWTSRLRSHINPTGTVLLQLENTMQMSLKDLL
The assay is described as follows: dot blot: protein dotted on nitrocellulose (250 to .016 ng), probed with AS19.

Assay [5] concerns the target T3, murine beta-dystroglycan extracellular domain (mbeta-DG ECD), HPC4 tagged (mouse, UniProt Q62165 652-746).
T3 construct: range 652-746; Made in E. coli as MBP fusion; MBP cleaved off with TEV protease; also called mbeta-DG-HPC4; murine beta-DG; not shown: C-terminal HPC4 tag
T3 sequence (looked up): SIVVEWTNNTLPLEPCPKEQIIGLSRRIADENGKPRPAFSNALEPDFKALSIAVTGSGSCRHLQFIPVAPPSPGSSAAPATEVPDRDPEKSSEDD
As to the kind of experiment: SPR (Biacore) kinetics, antibody as ligand on the chip, sample mBDg in flow, fit 1:1 Binding.

Assay [6] concerns the target T3, murine beta-dystroglycan extracellular …. As to the kind of experiment: SPR (Biacore) kinetics; mAb immobilized, mBeta-DG in flow.

B1: triAb 3407 (bispecific antibody)
light 1: EIVLTQSPDFLSVTPKEKVTLTCRASQSISNNLHWYQQKSDQSPKLLIKYASQSISGIPSRFSGSGSGTDFTLTINSVEAEDAATYFCQQSKSWPRTFGGGTKLEIKDKTHTEIVLTQSPDFLSVTPKEKVTLTCRASQSISNNLHWYQQKSDQSPKLLIKYASQSISGIPSRFSGSGSGTDFTLTINSVEAEDAATYFCQQSKSWPRTFGGGTKLEIKDKTHTRTVAAPSVFIFPPSDEQLKSGTASVVCLLNNFYPREAKVQWKVDNALQSGNSQESVTEQDSKDSTYSLSSTLTLSKADYEKHKVYACEVTHQGLSSPVTKSFNRGEC
heavy 1: EVQLVESGGGLVKPGGSLRLSCAASGFTFSSYTMSWVRQAPGKGLEWVASISSSGSNTYYPDSVKGRFTISRDNAKNNLYLQMNSLRAEDTALYYCARFDYGSSLDSWGQGTLLTVSSDKTHTEVQLVESGGGLVKPGGSLRLSCAASGFTFSSYTMSWVRQAPGKGLEWVASISSSGSNTYYPDSVKGRFTISRDNAKNNLYLQMNSLRAEDTALYYCARFDYGSSLDSWGQGTLLTVSSDKTHTASTKGPSVFPLAPSSKSTSGGTAALGCLVKDYFPEPVTVSWNSGALTSGVHTFPAVLQSSGLYSLSSVVTVPSSSLGTQTYICNVNHKPSNTKVDKKVEPKSCDKTHTCPPCPAPELLGGPSVFLFPPKPKDTLYITREPEVTCVVVDVSHEDPEVKFNWYVDGVEVHNAKTKPREEQYNNASRVVSVLTVLHQDWLNGKEYKCKVSNKALPAPIEKTISKAKGQPREPQVYTLPPCRDELTKNQVSLWCLVKGFYPSDIAVEWESNGQPENNYKTTPPVLDSDGSFFLYSKLTVDKSRWQQGNVFSCSVMHEALHNHYTQKSLSLSPG
heavy 2: QVQLVQSGAEVVKPGSSVKVSCEASGFTFTDSVITWVRQRPGQGLEWIGEIYPGSGNFYYNEKFQGRVTITADKSTSTAYMELSSLRSEDTAVYFCAMRRSSWGQGTLVTVSSASTKGPSVFPLAPSSKSTSGGTAALGCLVKDYFPEPVTVSWNSGALTSGVHTFPAVLQSSGLYSLSSVVTVPSSSLGTQTYICNVNHKPSNTKVDKKVEPKSCDKTHTCPPCPAPELLGGPSVFLFPPKPKDTLYITREPEVTCVVVDVSHEDPEVKFNWYVDGVEVHNAKTKPREEQYNNASRVVSVLTVLHQDWLNGKEYKCKVSNKALPAPIEKTISKAKGQPREPQVCTLPPSRDELTKNQVSLSCAVKGFYPSDIAVEWESNGQPENNYKTTPPVLDSDGSFFLVSKLTVDKSRWQQGNVFSCSVMHEALHNRFTQKSLSLSPG
light 2: DVVMTQTPLSLSVTPGQPASISCKSSQTIVHSNSKTYLEWYLQKPGQSPQLLIYKVSSRFSGVPDRFSGSGSGTDFTLKISRVEAEDVGVYYCFQGSHVPLTFGQGTKLEIKRTVAAPSVFIFPPSDEQLKSGTASVVCLLNNFYPREAKVQWKVDNALQSGNSQESVTEQDSKDSTYSLSSTLTLSKADYEKHKVYACEVTHQGLSSPVTKSFNRGEC
notes: knob-in-hole, NNAS, YTE and RF variants
Turning to B1, the EC50 (read off the curve) (in general, the concentration giving half of the maximal effect) in assay [1] was around 0.1 µg/mL. Further, in assay [2], binding was characterised by a dissociation constant (Kd) of 2.08 nM; the koff (usually the first-order rate constant of dissociation) is 0.00326 s⁻¹; the association rate constant (kon) (as a rule, the second-order rate constant of association) is 1.57e+06 M⁻¹ s⁻¹.

B2: anti-beta-DG antibody derived from hybridoma clone AS19 (antibody, V domains shown)
VH: QVQLQQSGPELVKPGASVKMSCKASGFTFTDSVISWVKQRTGQGLEWIGEIYPGSGSIYYNEKFKGKATLTADKSSNTAYMQLRSLTSEDSAVYFCAMRRSYWGQGTLVTVSA
VL: DVLMTQTPLSLPVSLGDQASISCRSSQSIVHSNGNTYLEWYLQKPGQSPKLLIYKVSNRFSGVPDRFSGSGSGTDFTLKISRVEAEDLGVYYCFQGSHVPLTFGAGTKLELK
notes: Hybridoma monoclonal antibody (detected with anti-mouse IgG)
For the molecule B2, the values for the dissociation constant Kd in assay [3] and in assay [6] were 2.06 nM and 3.38 nM, respectively. Besides, the binding result in assay [4] is reported as “no binding (tested: 250 ng)”. The molecule also displayed a koff in assay [5] of 0.000667 s⁻¹. The kon in assay [5] worked out at 110000 M⁻¹ s⁻¹.
